In paper doi:10.1101/726935 one finds stoichiometry N data, which are given here for 1 substance.

The term stoichiometry N denotes the number of molecules, sites or subunits per partner or assembly.

For this assay, the target named is EBOV VP35 WT oligomerization domain (Zaire ebolavirus, Yambuku-Mayinga) (UniProt Q05127). Kind of assay: SEC-MALS. In general terms: In gel filtration, larger molecules generally elute earlier.

The substance “EBOV VP35 WT oligomerization domain (from UniProt Q05127 75-185) (domain or fragment)” gave a stoichiometry N of 4.
